Consider two molecules from US20030157522A1, “Methods and reagents for peptide-BIR interaction screens” (priority 2001, published 2003).

No end group written: not given here.

Test [1] concerns T24 bladder carcinoma cells. The test can be described thus: Sensitization of adriamycin-resistant T24 cells (cell survival). Format: cell-based. The settings on record: 10 μg/ml adriamycin alone. On the procedure: FIG. 8 is a schematic illustration showing the effect of a compound identified as being capable of dislodging a HID 7mer from XIAP BIR3 on cell survival of T24 bladder carcinoma cells after 24 hours of exposure to 10 μg/ml adriamycin.
This is what we would expect from a compound that blocks the ability of IAPs to block caspases once the cell death pathways are activated by a death stimulus such as chemotherapy or radiation. Cancer cells in vivo may also die by the simple addition of the compound if the cancer cell is stressed by oncogene activation, nutrient deprivation, or loss of contact, and the IAPs are blocking caspases from effecting programmed cell death. The compound would be expected to antagonize IAP function and allow caspase activation under these situations.

The target of test [2] is T1, XIAP BIR3 (Homo sapiens, UniProt P98170).
T1 construct: as the C-terminal portion of XIAP lacking BIR1 and BIR2, and containing BIR3 and the RING domain to the final C-terminal residue; made in house; host or cells: E. coli
To be noted: previously shown; cited from earlier work.

The target in test [3] is T1, XIAP BIR3. The test can be described thus: Fluorescence polarization HID peptide displacement assay. The format is binding. The settings on record: GST BIR3/Ring, fluorescein-HID probe. The source says:
We developed an assay to screen for compounds capable of competing for the binding of an IAP-interacting peptide and displacing the peptide from its binding groove on BIR3 of XIAP (FIGS. 2-5). The BIR3 domain was produced as a GST fusion protein in E. Coli, as the C-terminal portion of XIAP lacking BIR1 and BIR2, and containing BIR3 and the RING domain to the final C-terminal residue, and purified to greater than 95% purity. Only the properly folded BIR3 domain is required here, and many fusion and purification strategies are available to achieve this.
The FP assay is based on the following principles: a smaller molecule tumbles more rapidly in solution than a larger one. A tumbling fluor will depolarize plane-polarized light, and any change in tumbling rate due to binding of the peptide to a larger molecule such as XIAP or the displacement of the peptide from XIAP, and therefore any change in fluorescence polarization can be accurately and sensitively measured (FIGS. 2A and 2B). […]
Assays and High Throughput assays. […] Following overnight incubation at 4° C., the fluorescence polarization was measured using a Polarion plate reader (Tecan, Research Triangle Park, N.C.). […]
Upon primary screening, hits were re-supplied from Talon Cheminformatics (Acton, ON, Canada) and a new 20 mM drug stock was prepared in 10% DMSO. […] Fluorescence Polarization Units are expressed in MP (FIG. 6).
A general note: Polarisation of emitted light reports the rotation of a fluorescent probe.

T1 sequence (P98170 246-497 limits assumed): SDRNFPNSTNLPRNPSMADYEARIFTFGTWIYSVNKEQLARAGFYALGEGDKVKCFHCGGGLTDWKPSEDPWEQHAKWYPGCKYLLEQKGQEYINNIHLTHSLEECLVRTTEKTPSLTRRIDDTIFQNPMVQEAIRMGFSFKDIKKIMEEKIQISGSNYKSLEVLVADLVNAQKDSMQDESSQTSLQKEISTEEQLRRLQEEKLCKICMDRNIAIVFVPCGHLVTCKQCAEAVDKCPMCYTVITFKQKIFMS

Regarding `COc1cccc2c1C(=O)c1c(O)c3c(c(O)c1C2=O)C[C@@](O)(C(=O)CO)C[C@@H]3O[C@H]1C[C@H](N)[C@H](O)[C@H](C)O1` [adriamycin], the “cell death with adriamycin on its own” value in test [1] was “does not result in any cell death”.

Take “Ala-Val-Pro-Phe-Tyr-Leu-Pro-Gly-Gly (AVPFYLPGG; not fully specified (C-terminus); printed as Ala-Val-Pro-Phe-Tyr-Leu-Pro-Gly-Gly; also: fluorescein label (probe form)) [HID peptide, peptide based on Drosophila HID with Gly-Gly spacer]”: in the test with XIAP BIR3 [2], the “binding affinity to XIAP BIR3” value is given as “high affinity”. For the same molecule, the “competition with / displacement of fluorescein-labeled HID peptide from XIAP BIR3” value in the test with XIAP BIR3 [3] was “compete off the fluorescein-labeled peptide”; with XIAP BIR3 [3] (listed as HID polypeptide) it was “can compete with labeled HID polypeptide”.
